This is an account of results in US20160200782A1 (MOERAE MATRIX, published 2016).

Some targets named below: Lck(h) (human, UniProt P06239 1-509, limits assumed); CLK2(h) (human, UniProt P49760 1-499, limits assumed); SRPK2(h) (human, UniProt P78362 1-688, limits assumed); EGFR(L858R)(h) (human, UniProt P00533 696-1210, limits assumed); ACK1(h) (human, UniProt Q07912 110-476, limits assumed).
Holding throughout (assay): cell-based or functional assay
The target in another assay is T1, Bmx(h) (human, UniProt P51813 1-675, limits assumed).
T1 sequence (looked up): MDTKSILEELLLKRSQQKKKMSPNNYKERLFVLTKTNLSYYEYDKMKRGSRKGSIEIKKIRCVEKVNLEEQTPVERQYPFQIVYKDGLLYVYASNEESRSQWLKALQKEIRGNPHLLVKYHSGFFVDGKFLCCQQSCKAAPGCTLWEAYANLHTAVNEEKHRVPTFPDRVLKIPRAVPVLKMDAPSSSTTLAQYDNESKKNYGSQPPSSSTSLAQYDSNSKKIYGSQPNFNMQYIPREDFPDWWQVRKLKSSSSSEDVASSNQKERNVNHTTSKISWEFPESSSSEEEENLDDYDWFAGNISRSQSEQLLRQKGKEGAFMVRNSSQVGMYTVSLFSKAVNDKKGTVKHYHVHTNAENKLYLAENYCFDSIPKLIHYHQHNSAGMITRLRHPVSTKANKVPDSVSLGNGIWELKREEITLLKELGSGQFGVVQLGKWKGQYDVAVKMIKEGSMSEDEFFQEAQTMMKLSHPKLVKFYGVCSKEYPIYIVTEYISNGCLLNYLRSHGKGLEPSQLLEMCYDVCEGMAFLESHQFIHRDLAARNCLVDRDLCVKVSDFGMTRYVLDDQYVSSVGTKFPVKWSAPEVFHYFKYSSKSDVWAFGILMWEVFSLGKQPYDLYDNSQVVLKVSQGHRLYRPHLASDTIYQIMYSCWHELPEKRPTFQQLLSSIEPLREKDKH
Also: test concentration or dose not given here.

B1: MMI-0300 (peptide)
peptide: FAKLAARLYRKALARQLGVAA
As for B1, the figures for the “% activity” value in the assay with Lck(h) and with CLK2(h) were -2% and 103%, respectively.

B2: MMI-0400 (peptide)
peptide: KAFAKLAARLYRKALARQLGVAA
As to B2, the “% activity” value with SRPK2(h) is 97%; with Bmx(h), 26%; in the assay with EGFR(L858R)(h), 52%; in the assay with ACK1(h), 95%.
